In the supplement of paper PMC10126150:
± gives the standard deviation of the averaged measurements.

Tested on: ATP
Experiment: switch fluorescence ratio, 500 uM ATP over buffer (Cy3 cluster intensity, sum of 5 cycles each) (fold (ratio)); higher = stronger signal-on switching upon ATP binding; sequences stand for … in TCGTCGGCAGCGTCAGATGTGTATAAGAGACAGTTTTTTTTTTTTTTTTTTTTTTTTT…TC
Conditions: aptamer strand: ATP DNA aptamer (quencher-CACCTGGGGGAGTATTGCGGAGGAAGG + anchor), 100 nM annealed; ATP concentration: 500 uM
How it was run: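 The fluorescence ratio divides summed target-cycle Cy3 intensity by summed buffer-cycle Cy3 intensity for each cluster and is averaged per switch-domain sequence. Cy3-labelled switching-strand clusters on a modified Illumina MiSeq flow-cell were annealed to 100 nM quencher-labelled ATP aptamer, then imaged in selection buffer and again after 15 min with 500 uM ATP at 22 °C. Five such cycles were run, with NaOH stripping and re-annealing between them, and clusters outside 100-1000 RFU were excluded.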
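Further: ATP exposure 15 min at 22 °C before imaging.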

Point of comparison: GGTTTAAGCA, switch fluorescence ratio 0.982 ± 0.034. Against it:
- GGTGCCTGAG — higher, 1.06 ± 0.03
- GGTGCGGCTG — within error, 1.01 ± 0.073
- GGTGCGGGAC — higher, 1.16 ± 0.12
- GGTGCGTTCT — within error, 1 ± 0.043
- GGTGCTGTCC — higher, 1.033 ± 0.0011
- GGTGCTTATA — within error, 1 ± 0.013
- GGTGGACCGA — within error, 0.984 ± 0.083
- GGTGGAGAGC — within error, 0.99885 ± 0.00089
- GGTGGATTCG — within error, 1.06 ± 0.063
- GGTGGCTGAA — within error, 0.99 ± 0.022
- GGTGGGAAGG — within error, 0.993 ± 0.02
- GGTGGGATGT — within error, 0.981 ± 0.02
- GGTGGGGGAT — within error, 1.01 ± 0.015
- GGTGGGGTAA — within error, 0.9927 ± 0.0083
- GGTGGGGTAG — within error, 0.988 ± 0.021
- GGTGGGGTGT — the same, 0.982 ± 0.05
- GGTGGGTAAT — within error, 0.983 ± 0.015
- GGTGGGTCGT — within error, 1.014 ± 0.0095
- GGTGGGTTAG — within error, 1.02 ± 0.032
- GGTGTAGGCG — within error, 0.969 ± 0.039
- GGTGTATAGT — within error, 0.9908 ± 0.0079
- GGTGTCGTG — within error, 0.98 ± 0.024
- GGTGTCTGT — within error, 0.9738 ± 0.0044
- GGTGTGATGG — within error, 0.9512 ± 0.0085
- GGTGTGCCGT — within error, 0.989 ± 0.1
- GGTGTGGGGA — within error, 0.994 ± 0.025
- GGTGTGTAGA — within error, 1.02 ± 0.038
- GGTGTGTTAA — within error, 0.996 ± 0.042
- GGTGTGTTTG — within error, 1.01 ± 0.046
- GGTGTTAGAG — within error, 0.985 ± 0.0036
- GGTGTTGAGA — within error, 1.01 ± 0.04
- GGTGTTGGAG — within error, 0.997 ± 0.019
- GGTGTTTCAT — within error, 0.973 ± 0.053
- GGTGTTTTTA — within error, 1.07 ± 0.067
- GGTTAAACAG — the same, 0.982 ± 0.041
- GGTTAAATTT — within error, 0.987 ± 0.021
- GGTTAACTAG — within error, 1.02 ± 0.011
- GGTTAACTGG — within error, 0.991 ± 0.023
- GGTTAAGATG — within error, 0.986 ± 0.01
- GGTTAAGGTG — higher, 1.28 ± 0.071
- GGTTAATCGG — within error, 0.9983 ± 0.0029
- GGTTAATTGG — within error, 0.99 ± 0.047
- GGTTACCAGA — within error, 0.9973 ± 0.0065
- GGTTACCGGC — within error, 0.977 ± 0.079
- GGTTACTGGA — within error, 1.02 ± 0.018
- GGTTACTTGG — within error, 0.9885 ± 0.0097
- GGTTAGCTGC — within error, 0.991 ± 0.023
- GGTTAGGTCG — within error, 1.06 ± 0.081
- GGTTAGGTGG — within error, 0.99 ± 0.044
- GGTTATCTTG — within error, 1.01 ± 0.019
- GGTTATGGCT — within error, 0.9973 ± 0.0025
- GGTTATTGTG — within error, 0.968 ± 0.027
- GGTTCAAGGA — within error, 0.99 ± 0.063
- GGTTCAGCGC — within error, 1.03 ± 0.041
- GGTTCAGGGT — within error, 1.02 ± 0.023
- GGTTCATGGT — within error, 0.989 ± 0.011
- GGTTCATTAG — within error, 1.01 ± 0.037
- GGTTCCAAAA — within error, 1.02 ± 0.029
- GGTTCGAAGT — within error, 1.01 ± 0.048
- GGTTCGGCTG — the same, 0.982 ± 0.012
- GGTTCTATAG — within error, 0.993 ± 0.02
- GGTTCTGGCC — within error, 0.996 ± 0.013
- GGTTCTTAGG — within error, 1.01 ± 0.032
- GGTTCTTAGT — within error, 0.978 ± 0.05
- GGTTCTTATT — within error, 1.017 ± 0.0064
- GGTTGAAGTA — within error, 0.989 ± 0.047
- GGTTGAATTG — within error, 0.974 ± 0.01
- GGTTGAGTG — within error, 0.977 ± 0.0033
- GGTTGATTGG — within error, 0.973 ± 0.014
- GGTTGCAAGC — higher, 1.05 ± 0.017
- GGTTGCCTGC — within error, 0.96 ± 0.029
- GGTTGCTCGG — within error, 0.998 ± 0.026
- GGTTGCTGCC — within error, 0.9917 ± 0.0029
- GGTTGGAATA — within error, 0.965 ± 0.044
- GGTTGGAATG — within error, 1.08 ± 0.18
- GGTTGGAGGT — within error, 0.971 ± 0.019
- GGTTGGGCGA — within error, 0.986 ± 0.021
- GGTTGGGGGC — within error, 0.991 ± 0.025
- GGTTGGGGTT — within error, 0.942 ± 0.039
- GGTTGGGTG — higher, 1.03 ± 0.013
- GGTTGGGTTT — within error, 0.989 ± 0.03
- GGTTGGTACT — within error, 1 ± 0.026
- GGTTGGTATG — within error, 0.987 ± 0.027
- GGTTGGTCTT — within error, 0.974 ± 0.041
- GGTTGTACGA — within error, 0.986 ± 0.01
- GGTTGTACGT — within error, 0.984 ± 0.01
- GGTTGTGATA — within error, 0.999 ± 0.044
- GGTTGTGGGA — within error, 0.98 ± 0.053
- GGTTGTGGTT — within error, 0.998 ± 0.031
- GGTTGTGTTA — within error, 0.998 ± 0.013
- GGTTGTTCGT — within error, 1.006 ± 0.0037
- GGTTGTTGAG — within error, 0.987 ± 0.052
- GGTTGTTTGG — within error, 0.989 ± 0.02
- GGTTGTTTGT — within error, 0.995 ± 0.015
- GGTTTAAAGT — within error, 1.01 ± 0.014
- GGTTTACGGT — within error, 1.007 ± 0.0018
- GGTTTAGATA — within error, 0.987 ± 0.031
- GGTTTAGCGG — within error, 0.9809 ± 0.0033
- GGTTTAGGCC — within error, 0.991 ± 0.03
